Experimental data taken from the supplement of paper PMC10065799, “High-throughput profiling of sequence recognition by tyrosine kinases and SH2 domains using bacterial peptide display” (eLife, 2023).
One block for each sequence: values may come before it.

Columns and labels:
MERTK = MERTK (UniProt Q12866); experiment: phosphorylation enrichment, bacterial display (enrichment ratio); higher = better substrate or ligand; peptides without Tyr show the background
Fer (mouse) = experiment: as above
AncSZ = experiment: as above
FGFR1 = FGFR1 (UniProt P11362); experiment: as above
FGFR3 = FGFR3 (UniProt P22607); experiment: as above
EPHB1 = EPHB1 (UniProt P54762); experiment: as above
c-Src = experiment: as above
Fes = Fes (UniProt P07332); experiment: as above
Fyn = Fyn (UniProt P06241); experiment: as above
Hck = Hck (UniProt P08631); experiment: as above
c-Abl (mouse) = experiment: as above
EPHB2 = EPHB2 (UniProt P29323); experiment: as above
Jak2 = Jak2 (UniProt O60674); experiment: as above
SHP2-C SH2 = experiment: SH2 binding enrichment of the phosphorylated peptide, bacterial display (enrichment ratio); higher = better substrate or ligand; peptides without Tyr show the background
Grb2 SH2 = Grb2 SH2 (UniProt P62993); experiment: as above
c-Src SH2 = experiment: as above
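Throughout, for SH2 binding enrichment of the phosphorylated peptide, bacterial display: peptide library displayed on the E. coli surface as eCPX fusions, selected cells deep-sequenced, score is each peptide's frequency after selection divided by its frequency in the input.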
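Throughout, for phosphorylation enrichment, bacterial display: 11-residue human phosphosite peptides and single-mutation variants displayed on the E. coli surface, counted by deep sequencing, each peptide's frequency after selection divided by its frequency in the unselected input library; frequency after pTyr selection over input frequency; kinase dosed for 20-30% of maximal phosphorylation in three min.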

Chain of MERTK (Q12866 whole entry, looked up): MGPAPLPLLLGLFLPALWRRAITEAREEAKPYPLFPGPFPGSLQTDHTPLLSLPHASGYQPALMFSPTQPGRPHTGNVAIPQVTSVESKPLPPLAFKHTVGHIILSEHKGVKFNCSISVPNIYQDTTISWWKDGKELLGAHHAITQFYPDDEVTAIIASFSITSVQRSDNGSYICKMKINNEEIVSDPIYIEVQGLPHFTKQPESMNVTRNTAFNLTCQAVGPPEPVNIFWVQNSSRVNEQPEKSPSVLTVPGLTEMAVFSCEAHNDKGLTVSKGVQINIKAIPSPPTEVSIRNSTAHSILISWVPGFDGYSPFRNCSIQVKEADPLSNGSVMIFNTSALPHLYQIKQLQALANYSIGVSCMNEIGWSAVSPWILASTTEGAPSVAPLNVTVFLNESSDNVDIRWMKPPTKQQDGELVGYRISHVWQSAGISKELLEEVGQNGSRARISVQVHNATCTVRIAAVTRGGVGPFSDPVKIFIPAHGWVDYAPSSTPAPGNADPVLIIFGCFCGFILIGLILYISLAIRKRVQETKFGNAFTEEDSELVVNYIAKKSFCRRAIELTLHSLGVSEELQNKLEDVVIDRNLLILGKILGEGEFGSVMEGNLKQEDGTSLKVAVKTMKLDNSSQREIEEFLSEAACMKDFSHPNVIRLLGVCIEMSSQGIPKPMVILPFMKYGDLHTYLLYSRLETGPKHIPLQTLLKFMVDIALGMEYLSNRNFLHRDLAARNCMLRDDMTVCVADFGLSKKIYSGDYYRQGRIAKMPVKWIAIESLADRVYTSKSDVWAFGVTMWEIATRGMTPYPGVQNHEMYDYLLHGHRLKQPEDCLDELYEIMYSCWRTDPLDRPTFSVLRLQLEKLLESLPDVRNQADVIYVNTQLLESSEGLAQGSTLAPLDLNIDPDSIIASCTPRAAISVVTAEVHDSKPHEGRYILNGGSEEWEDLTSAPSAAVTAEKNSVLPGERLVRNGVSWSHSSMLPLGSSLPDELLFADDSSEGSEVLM
Chain of Jak2 (O60674 whole entry, looked up): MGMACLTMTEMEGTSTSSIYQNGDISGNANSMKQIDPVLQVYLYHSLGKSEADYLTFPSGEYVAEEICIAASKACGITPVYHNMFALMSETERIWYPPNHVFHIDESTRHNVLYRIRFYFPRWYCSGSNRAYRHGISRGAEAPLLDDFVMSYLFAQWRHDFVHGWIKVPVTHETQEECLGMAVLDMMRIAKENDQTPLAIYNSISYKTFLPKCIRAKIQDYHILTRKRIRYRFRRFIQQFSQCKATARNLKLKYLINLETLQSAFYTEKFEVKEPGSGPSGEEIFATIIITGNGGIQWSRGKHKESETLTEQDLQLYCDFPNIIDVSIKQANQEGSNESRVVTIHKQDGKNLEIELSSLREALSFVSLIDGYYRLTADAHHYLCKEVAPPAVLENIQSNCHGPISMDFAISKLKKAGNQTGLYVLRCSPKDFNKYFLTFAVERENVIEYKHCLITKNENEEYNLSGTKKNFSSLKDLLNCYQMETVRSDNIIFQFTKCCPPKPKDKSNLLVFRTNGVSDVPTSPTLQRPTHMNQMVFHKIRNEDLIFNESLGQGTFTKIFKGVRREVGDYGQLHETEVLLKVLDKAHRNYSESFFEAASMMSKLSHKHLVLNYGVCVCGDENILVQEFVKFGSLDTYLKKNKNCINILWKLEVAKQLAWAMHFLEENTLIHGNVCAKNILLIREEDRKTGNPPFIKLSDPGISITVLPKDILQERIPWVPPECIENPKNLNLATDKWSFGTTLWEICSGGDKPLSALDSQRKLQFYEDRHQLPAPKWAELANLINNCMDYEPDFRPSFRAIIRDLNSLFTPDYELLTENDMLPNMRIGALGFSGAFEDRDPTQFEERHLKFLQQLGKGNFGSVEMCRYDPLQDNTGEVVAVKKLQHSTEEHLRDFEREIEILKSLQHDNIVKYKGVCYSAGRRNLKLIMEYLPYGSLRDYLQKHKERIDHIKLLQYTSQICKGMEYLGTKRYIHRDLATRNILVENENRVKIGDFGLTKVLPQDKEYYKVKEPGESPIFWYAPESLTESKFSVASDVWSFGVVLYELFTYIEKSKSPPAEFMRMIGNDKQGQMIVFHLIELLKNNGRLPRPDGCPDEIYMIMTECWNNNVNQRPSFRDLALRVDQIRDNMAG
Chain of FGFR1 (P11362 whole entry, looked up): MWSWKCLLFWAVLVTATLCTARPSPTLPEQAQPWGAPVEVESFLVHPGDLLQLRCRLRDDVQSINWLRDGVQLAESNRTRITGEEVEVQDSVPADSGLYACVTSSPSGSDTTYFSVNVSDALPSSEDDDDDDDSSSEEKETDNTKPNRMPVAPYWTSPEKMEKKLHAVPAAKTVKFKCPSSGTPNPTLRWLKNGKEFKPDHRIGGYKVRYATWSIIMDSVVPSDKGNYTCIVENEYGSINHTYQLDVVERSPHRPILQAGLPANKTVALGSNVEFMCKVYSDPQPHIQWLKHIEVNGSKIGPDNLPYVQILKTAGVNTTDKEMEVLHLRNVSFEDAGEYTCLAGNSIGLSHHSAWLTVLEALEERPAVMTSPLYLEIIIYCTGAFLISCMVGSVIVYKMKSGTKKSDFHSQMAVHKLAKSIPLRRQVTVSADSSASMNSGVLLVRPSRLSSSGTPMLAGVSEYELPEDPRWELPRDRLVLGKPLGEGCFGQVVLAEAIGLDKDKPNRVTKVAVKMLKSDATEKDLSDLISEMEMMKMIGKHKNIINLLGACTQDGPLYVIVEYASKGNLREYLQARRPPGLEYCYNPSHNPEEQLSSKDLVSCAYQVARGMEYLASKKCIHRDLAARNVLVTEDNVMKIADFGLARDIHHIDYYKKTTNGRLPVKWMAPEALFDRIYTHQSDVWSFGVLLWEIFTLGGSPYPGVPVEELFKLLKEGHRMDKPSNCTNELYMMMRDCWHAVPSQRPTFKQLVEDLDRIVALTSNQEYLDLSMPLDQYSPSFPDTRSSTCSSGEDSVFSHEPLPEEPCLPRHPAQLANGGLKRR
Chain of Fes (P07332 whole entry, looked up): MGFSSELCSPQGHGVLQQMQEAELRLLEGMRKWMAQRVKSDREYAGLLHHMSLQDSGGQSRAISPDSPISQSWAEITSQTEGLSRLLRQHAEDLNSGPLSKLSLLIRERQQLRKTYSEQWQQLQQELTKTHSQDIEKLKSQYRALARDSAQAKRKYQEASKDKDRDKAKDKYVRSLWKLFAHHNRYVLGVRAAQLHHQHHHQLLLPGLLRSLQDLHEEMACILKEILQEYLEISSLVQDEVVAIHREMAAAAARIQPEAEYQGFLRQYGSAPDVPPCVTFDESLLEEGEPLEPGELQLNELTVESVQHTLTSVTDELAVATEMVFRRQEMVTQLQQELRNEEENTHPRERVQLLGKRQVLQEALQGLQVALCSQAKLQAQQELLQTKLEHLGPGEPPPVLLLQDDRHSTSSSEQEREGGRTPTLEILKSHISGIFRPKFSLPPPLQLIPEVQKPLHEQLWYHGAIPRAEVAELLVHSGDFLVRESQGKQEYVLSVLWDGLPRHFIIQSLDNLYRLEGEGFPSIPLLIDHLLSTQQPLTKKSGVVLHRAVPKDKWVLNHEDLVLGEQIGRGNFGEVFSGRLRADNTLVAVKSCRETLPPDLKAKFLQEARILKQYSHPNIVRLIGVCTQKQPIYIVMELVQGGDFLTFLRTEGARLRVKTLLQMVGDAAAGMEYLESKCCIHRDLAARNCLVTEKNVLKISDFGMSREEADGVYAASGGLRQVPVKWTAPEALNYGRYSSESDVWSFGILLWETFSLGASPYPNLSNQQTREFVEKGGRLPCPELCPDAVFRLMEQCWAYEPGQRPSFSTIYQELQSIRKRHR
Chain of FGFR3 (P22607 whole entry, looked up): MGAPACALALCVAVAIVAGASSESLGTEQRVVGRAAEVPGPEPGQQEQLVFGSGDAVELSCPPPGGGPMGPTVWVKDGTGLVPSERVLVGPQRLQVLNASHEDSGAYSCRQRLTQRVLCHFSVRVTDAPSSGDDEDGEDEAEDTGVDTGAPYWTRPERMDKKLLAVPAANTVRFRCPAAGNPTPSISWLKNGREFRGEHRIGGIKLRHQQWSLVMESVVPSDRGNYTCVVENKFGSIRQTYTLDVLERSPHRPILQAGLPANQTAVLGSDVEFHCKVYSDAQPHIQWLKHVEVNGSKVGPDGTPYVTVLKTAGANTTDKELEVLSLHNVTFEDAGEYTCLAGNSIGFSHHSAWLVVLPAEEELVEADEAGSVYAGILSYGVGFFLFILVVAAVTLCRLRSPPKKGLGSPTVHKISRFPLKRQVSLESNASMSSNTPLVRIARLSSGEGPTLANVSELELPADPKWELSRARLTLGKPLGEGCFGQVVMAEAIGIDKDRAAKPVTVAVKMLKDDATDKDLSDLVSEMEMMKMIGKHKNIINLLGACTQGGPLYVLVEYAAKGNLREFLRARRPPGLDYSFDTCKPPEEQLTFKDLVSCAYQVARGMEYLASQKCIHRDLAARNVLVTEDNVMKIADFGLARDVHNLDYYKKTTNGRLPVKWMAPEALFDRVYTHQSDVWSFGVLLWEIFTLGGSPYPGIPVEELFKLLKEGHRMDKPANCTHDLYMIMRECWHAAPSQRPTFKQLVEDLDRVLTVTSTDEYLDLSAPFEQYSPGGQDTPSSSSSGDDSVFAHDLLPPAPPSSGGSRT

SH2 binding enrichment (SHP2-C SH2): 0.967
SH2 binding enrichment (Grb2 SH2): 0.971
SH2 binding enrichment (c-Src SH2): 0.759
Sequence: TSPKSCPSQKH [CAP2_Y316_Y316C]
phosphorylation enrichment (MERTK): 0.476
phosphorylation enrichment (Fer (mouse)): 0.385
phosphorylation enrichment (AncSZ): 0.546
phosphorylation enrichment (FGFR1): 0.432
phosphorylation enrichment (FGFR3): 0.521
phosphorylation enrichment (EPHB1): 0.385
phosphorylation enrichment (c-Src): 0.415
phosphorylation enrichment (Fes): 0.619
phosphorylation enrichment (Fyn): 0.461
phosphorylation enrichment (Hck): 0.472
phosphorylation enrichment (c-Abl (mouse)): 0.688
phosphorylation enrichment (EPHB2): 0.361
phosphorylation enrichment (Jak2): 0.73

SH2 binding enrichment (SHP2-C SH2): 0.651
SH2 binding enrichment (Grb2 SH2): 0.887
SH2 binding enrichment (c-Src SH2): 0.521
Sequence: RASDYYSQQMA [GBP6_Y334_A331S]
phosphorylation enrichment (MERTK): 0.581
phosphorylation enrichment (Fer (mouse)): 0.402
phosphorylation enrichment (AncSZ): 0.891
phosphorylation enrichment (FGFR1): 2.42
phosphorylation enrichment (FGFR3): 1.89
phosphorylation enrichment (EPHB1): 0.966
phosphorylation enrichment (c-Src): 0.41
phosphorylation enrichment (Fes): 0.744
phosphorylation enrichment (Fyn): 0.422
phosphorylation enrichment (Hck): 0.611
phosphorylation enrichment (c-Abl (mouse)): 0.458
phosphorylation enrichment (EPHB2): 0.585
phosphorylation enrichment (Jak2): 0.571

SH2 binding enrichment (SHP2-C SH2): 0.75
SH2 binding enrichment (Grb2 SH2): 0.883
SH2 binding enrichment (c-Src SH2): 0.572
Sequence: ETGEPYRLSPE [EIF4G1_Y311]
phosphorylation enrichment (MERTK): 0.503
phosphorylation enrichment (Fer (mouse)): 0.635
phosphorylation enrichment (AncSZ): 1.19
phosphorylation enrichment (FGFR1): 0.58
phosphorylation enrichment (FGFR3): 0.783
phosphorylation enrichment (EPHB1): 0.733
phosphorylation enrichment (c-Src): 0.527
phosphorylation enrichment (Fes): 1.15
phosphorylation enrichment (Fyn): 0.505
phosphorylation enrichment (Hck): 0.631
phosphorylation enrichment (c-Abl (mouse)): 0.893
phosphorylation enrichment (EPHB2): 0.68
phosphorylation enrichment (Jak2): 1

SH2 binding enrichment (SHP2-C SH2): 0.619
SH2 binding enrichment (Grb2 SH2): 1.04
SH2 binding enrichment (c-Src SH2): 0.576
Sequence: ISSLLYELLEE [TRPC6_Y896_R895L]
phosphorylation enrichment (MERTK): 6.1
phosphorylation enrichment (Fer (mouse)): 7.37
phosphorylation enrichment (AncSZ): 1.94
phosphorylation enrichment (FGFR1): 0.953
phosphorylation enrichment (FGFR3): 1.35
phosphorylation enrichment (EPHB1): 7.24
phosphorylation enrichment (c-Src): 3.33
phosphorylation enrichment (Fes): 1.94
phosphorylation enrichment (Fyn): 2.14
phosphorylation enrichment (Hck): 3.25
phosphorylation enrichment (c-Abl (mouse)): 1.31
phosphorylation enrichment (EPHB2): 4.5
phosphorylation enrichment (Jak2): 1.21

SH2 binding enrichment (SHP2-C SH2): 0.834
SH2 binding enrichment (Grb2 SH2): 1.09
SH2 binding enrichment (c-Src SH2): 0.621
Sequence: CLAKMYFSAVE [CP_Y539_D544E_YF]
phosphorylation enrichment (MERTK): 0.514
phosphorylation enrichment (Fer (mouse)): 0.602
phosphorylation enrichment (AncSZ): 1.22
phosphorylation enrichment (FGFR1): 0.599
phosphorylation enrichment (FGFR3): 0.909
phosphorylation enrichment (EPHB1): 0.589
phosphorylation enrichment (c-Src): 0.721
phosphorylation enrichment (Fes): 1.35
phosphorylation enrichment (Fyn): 0.822
phosphorylation enrichment (Hck): 0.663
phosphorylation enrichment (c-Abl (mouse)): 0.848
phosphorylation enrichment (EPHB2): 0.552
phosphorylation enrichment (Jak2): 1.19

SH2 binding enrichment (SHP2-C SH2): 0.838
SH2 binding enrichment (Grb2 SH2): 1.01
SH2 binding enrichment (c-Src SH2): 0.58
Sequence: IRFSDYVEVAD [PHACTR1_Y525]
phosphorylation enrichment (MERTK): 0.434
phosphorylation enrichment (Fer (mouse)): 0.431
phosphorylation enrichment (AncSZ): 1.41
phosphorylation enrichment (FGFR1): 1.88
phosphorylation enrichment (FGFR3): 1.58
phosphorylation enrichment (EPHB1): 1.42
phosphorylation enrichment (c-Src): 0.448
phosphorylation enrichment (Fes): 1.01
phosphorylation enrichment (Fyn): 0.538
phosphorylation enrichment (Hck): 0.519
phosphorylation enrichment (c-Abl (mouse)): 0.755
phosphorylation enrichment (EPHB2): 0.977
phosphorylation enrichment (Jak2): 1.01

SH2 binding enrichment (SHP2-C SH2): 0.814
SH2 binding enrichment (Grb2 SH2): 0.861
SH2 binding enrichment (c-Src SH2): 0.522
Sequence: SLESAYPEGSQ [TTF1_Y357]
phosphorylation enrichment (MERTK): 0.366
phosphorylation enrichment (Fer (mouse)): 0.457
phosphorylation enrichment (AncSZ): 0.877
phosphorylation enrichment (FGFR1): 0.61
phosphorylation enrichment (FGFR3): 0.629
phosphorylation enrichment (EPHB1): 0.463
phosphorylation enrichment (c-Src): 0.406
phosphorylation enrichment (Fes): 0.968
phosphorylation enrichment (Fyn): 0.539
phosphorylation enrichment (Hck): 0.593
phosphorylation enrichment (c-Abl (mouse)): 0.601
phosphorylation enrichment (EPHB2): 0.574
phosphorylation enrichment (Jak2): 0.712

SH2 binding enrichment (SHP2-C SH2): 0.72
SH2 binding enrichment (Grb2 SH2): 0.747
SH2 binding enrichment (c-Src SH2): 0.529
Sequence: VNKIYHPDFIV [LIG3_Y768_Y768H]
phosphorylation enrichment (MERTK): 0.483
phosphorylation enrichment (Fer (mouse)): 0.388
phosphorylation enrichment (AncSZ): 0.62
phosphorylation enrichment (FGFR1): 0.453
phosphorylation enrichment (FGFR3): 0.589
phosphorylation enrichment (EPHB1): 0.355
phosphorylation enrichment (c-Src): 0.484
phosphorylation enrichment (Fes): 0.715
phosphorylation enrichment (Fyn): 0.446
phosphorylation enrichment (Hck): 0.481
phosphorylation enrichment (c-Abl (mouse)): 0.562
phosphorylation enrichment (EPHB2): 0.417
phosphorylation enrichment (Jak2): 0.796
